Experiments:
[1] = target: GST-fusion protein containing amino acids 327-517 of KIAA0175 (UniProt Q14680)
GST-Chk2(1-222) = GST-Chk2(1-222) (UniProt O96017)
[2] = target: GST-fusion protein containing amino acids 227-325 of KIAA0175 (UniProt Q14680)
[3] = target: KIAA0175 (327-517) with serine 391 mutated to alanine (UniProt Q14680)
GST-hDM2 (330-491) = GST-hDM2 (330-491) (UniProt Q00987)
[4] = target: GST-fusion protein containing amino acids 42-182 of KIAA0175 (UniProt Q14680)
GST-p53 (1-106) = GST-p53 (1-106) (UniProt P04637)

Ataxia telangiectasia mutated (ATM)
in vitro phosphorylation by ATM immunoprecipitates [1]: A fusion including amino acids 327-517 harboring S^391Q was a substrate for ATM
in vitro phosphorylation by ATM immunoprecipitates (GST-Chk2(1-222)): KIAA0175 (327-517) phosphorylation was comparable to that seen with several known substrates of ATM included in the same assay, ... GST-Chk2(1-222)
in vitro phosphorylation by ATM immunoprecipitates [2]: amino acids 227-325 with no SQ sites, were not phosphorylated
irradiation induced phosphorylation by ATM [3]: Mutation of serine 391 to alanine completely abolished the irradiation induced phosphorylation by ATM
in vitro phosphorylation by ATM immunoprecipitates (GST-hDM2 (330-491)): KIAA0175 (327-517) phosphorylation was comparable to that seen with several known substrates of ATM included in the same assay, ... GST-hDM2 (330-491)
in vitro phosphorylation by ATM immunoprecipitates [4]: amino acid 42-182 (containing S100Q and S^125Q) ... were not phosphorylated
in vitro phosphorylation by ATM immunoprecipitates (GST-p53 (1-106)): KIAA0175 (327-517) phosphorylation was comparable to that seen with several known substrates of ATM included in the same assay, GST-p53 (1-106)
